Measured values taken from PMC3154423.

Legend:
Assay in all cases: ITC
[1] = target: Jun bZIP R259A;Fos bZIP K153A (human;human, UniProt P05412;P01100 252-315;137-200, R259A|K153A)
[2] = target: Jun bZIP K258A;Fos bZIP R157A (human;human, UniProt P05412;P01100 252-315;137-200, K258A|R157A)
Jun-Jun bZIP WT = Jun-Jun bZIP WT (human, UniProt P05412 252-315)
[3] = target: Jun bZIP R263A;Fos bZIP R146A (human;human, UniProt P05412;P01100 252-315;137-200, R263A|R146A)
[4] = target: Jun bZIP K258A;Fos bZIP K153A (human;human, UniProt P05412;P01100 252-315;137-200, K258A|K153A)
[5] = target: Jun bZIP R261A;Fos bZIP R143A (human;human, UniProt P05412;P01100 252-315;137-200, R261A|R143A)
[6] = target: Jun bZIP K273A;Fos bZIP R146A (human;human, UniProt P05412;P01100 252-315;137-200, K273A|R146A)
Jun-Jun bZIP R261A = Jun-Jun bZIP R261A (human, UniProt P05412 252-315, R261A)
[7] = target: Jun bZIP R261A;Fos bZIP K148A (human;human, UniProt P05412;P01100 252-315;137-200, R261A|K148A)
[8] = target: Jun bZIP K268A;Fos bZIP K153A (human;human, UniProt P05412;P01100 252-315;137-200, K268A|K153A)
Jun-Jun bZIP K273A = Jun-Jun bZIP K273A (human, UniProt P05412 252-315, K273A)
[9] = target: Jun bZIP R272A;Fos bZIP R144A (human;human, UniProt P05412;P01100 252-315;137-200, R272A|R144A)
[10] = target: Jun bZIP R272A;Fos bZIP R146A (human;human, UniProt P05412;P01100 252-315;137-200, R272A|R146A)
[11] = target: Jun bZIP K268A;Fos bZIP R155A (human;human, UniProt P05412;P01100 252-315;137-200, K268A|R155A)
[12] = target: Jun bZIP R261A;Fos bZIP R157A (human;human, UniProt P05412;P01100 252-315;137-200, R261A|R157A)
[13] = target: Jun bZIP R263A;Fos bZIP R158A (human;human, UniProt P05412;P01100 252-315;137-200, R263A|R158A)
[14] = target: Jun bZIP K273A;Fos bZIP R158A (human;human, UniProt P05412;P01100 252-315;137-200, K273A|R158A)
Sequence of Jun bZIP K273A;Fos bZIP R158A (P05412 252-315 K273A, chain 1 of 2): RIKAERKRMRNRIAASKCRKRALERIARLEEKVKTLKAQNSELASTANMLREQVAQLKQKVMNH
Sequence of Jun bZIP K273A;Fos bZIP R158A (P01100 137-200 R158A, chain 2 of 2): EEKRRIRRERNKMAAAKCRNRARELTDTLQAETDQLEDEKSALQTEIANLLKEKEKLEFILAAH

Sequence of Jun-Jun bZIP WT (P05412 252-315): as the sequence (P05412 252-315 K273A, chain 1 of 2) above, with A22K counted along it
Sequence of Jun bZIP R272A;Fos bZIP R146A (P05412 252-315 R272A, chain 1 of 2): as the sequence (P05412 252-315 K273A, chain 1 of 2) above, with R21A, A22K counted along it
Sequence of Jun bZIP R272A;Fos bZIP R146A (P01100 137-200 R146A, chain 2 of 2): as the sequence (P01100 137-200 R158A, chain 2 of 2) above, with R10A, A22R counted along it
Sequence of Jun bZIP R272A;Fos bZIP R144A (P05412 252-315 R272A, chain 1 of 2): as the sequence (P05412 252-315 K273A, chain 1 of 2) above, with R21A, A22K counted along it
Sequence of Jun bZIP R272A;Fos bZIP R144A (P01100 137-200 R144A, chain 2 of 2): as the sequence (P01100 137-200 R158A, chain 2 of 2) above, with R8A, A22R counted along it
Sequence of Jun bZIP R259A;Fos bZIP K153A (P05412 252-315 R259A, chain 1 of 2): as the sequence (P05412 252-315 K273A, chain 1 of 2) above, with R8A, A22K counted along it
Sequence of Jun bZIP R259A;Fos bZIP K153A (P01100 137-200 K153A, chain 2 of 2): as the sequence (P01100 137-200 R158A, chain 2 of 2) above, with K17A, A22R counted along it
Sequence of Jun bZIP R263A;Fos bZIP R146A (P05412 252-315 R263A, chain 1 of 2): as the sequence (P05412 252-315 K273A, chain 1 of 2) above, with R12A, A22K counted along it
Sequence of Jun bZIP R263A;Fos bZIP R146A (P01100 137-200 R146A, chain 2 of 2): as the sequence (P01100 137-200 R158A, chain 2 of 2) above, with R10A, A22R counted along it
Sequence of Jun bZIP R263A;Fos bZIP R158A (P05412 252-315 R263A, chain 1 of 2): as the sequence (P05412 252-315 K273A, chain 1 of 2) above, with R12A, A22K counted along it
Sequence of Jun bZIP R263A;Fos bZIP R158A (P01100 137-200 R158A, chain 2 of 2): as the sequence (P01100 137-200 R158A, chain 2 of 2) above
Sequence of Jun bZIP K258A;Fos bZIP K153A (P05412 252-315 K258A, chain 1 of 2): as the sequence (P05412 252-315 K273A, chain 1 of 2) above, with K7A, A22K counted along it
Sequence of Jun bZIP K258A;Fos bZIP K153A (P01100 137-200 K153A, chain 2 of 2): as the sequence (P01100 137-200 R158A, chain 2 of 2) above, with K17A, A22R counted along it
Sequence of Jun bZIP K258A;Fos bZIP R157A (P05412 252-315 K258A, chain 1 of 2): as the sequence (P05412 252-315 K273A, chain 1 of 2) above, with K7A, A22K counted along it
Sequence of Jun bZIP K258A;Fos bZIP R157A (P01100 137-200 R157A, chain 2 of 2): as the sequence (P01100 137-200 R158A, chain 2 of 2) above, with R21A, A22R counted along it
Sequence of Jun bZIP R261A;Fos bZIP R143A (P05412 252-315 R261A, chain 1 of 2): as the sequence (P05412 252-315 K273A, chain 1 of 2) above, with R10A, A22K counted along it
Sequence of Jun bZIP R261A;Fos bZIP R143A (P01100 137-200 R143A, chain 2 of 2): as the sequence (P01100 137-200 R158A, chain 2 of 2) above, with R7A, A22R counted along it
Sequence of Jun-Jun bZIP R261A (P05412 252-315 R261A): as the sequence (P05412 252-315 K273A, chain 1 of 2) above, with R10A, A22K counted along it
Sequence of Jun bZIP R261A;Fos bZIP R157A (P05412 252-315 R261A, chain 1 of 2): as the sequence (P05412 252-315 K273A, chain 1 of 2) above, with R10A, A22K counted along it
Sequence of Jun bZIP R261A;Fos bZIP R157A (P01100 137-200 R157A, chain 2 of 2): as the sequence (P01100 137-200 R158A, chain 2 of 2) above, with R21A, A22R counted along it
Sequence of Jun bZIP R261A;Fos bZIP K148A (P05412 252-315 R261A, chain 1 of 2): as the sequence (P05412 252-315 K273A, chain 1 of 2) above, with R10A, A22K counted along it
Sequence of Jun bZIP R261A;Fos bZIP K148A (P01100 137-200 K148A, chain 2 of 2): as the sequence (P01100 137-200 R158A, chain 2 of 2) above, with K12A, A22R counted along it
Sequence of Jun bZIP K268A;Fos bZIP R155A (P05412 252-315 K268A, chain 1 of 2): as the sequence (P05412 252-315 K273A, chain 1 of 2) above, with K17A, A22K counted along it
Sequence of Jun bZIP K268A;Fos bZIP R155A (P01100 137-200 R155A, chain 2 of 2): as the sequence (P01100 137-200 R158A, chain 2 of 2) above, with R19A, A22R counted along it
Sequence of Jun bZIP K268A;Fos bZIP K153A (P05412 252-315 K268A, chain 1 of 2): as the sequence (P05412 252-315 K273A, chain 1 of 2) above, with K17A, A22K counted along it
Sequence of Jun bZIP K268A;Fos bZIP K153A (P01100 137-200 K153A, chain 2 of 2): as the sequence (P01100 137-200 R158A, chain 2 of 2) above, with K17A, A22R counted along it
Sequence of Jun bZIP K273A;Fos bZIP R146A (P05412 252-315 K273A, chain 1 of 2): as the sequence (P05412 252-315 K273A, chain 1 of 2) above
Sequence of Jun bZIP K273A;Fos bZIP R146A (P01100 137-200 R146A, chain 2 of 2): as the sequence (P01100 137-200 R158A, chain 2 of 2) above, with R10A, A22R counted along it
Sequence of Jun-Jun bZIP K273A (P05412 252-315 K273A): as the sequence (P05412 252-315 K273A, chain 1 of 2) above

B1: TRE duplex 15-mer (dsDNA)
DNA 1: CGCGTGACTCACCCC
DNA 2: GGGGTGAGTCACGCG
Question: For B1, which Kd [1] is on record?
Answer: 1720 ± 150 nM

Question: What about the Kd [2] of the same binder?
Answer: 1500 ± 80 nM

Question: And the Kd (Jun-Jun bZIP WT)?
Answer: 190 ± 20 nM

Question: And the Kd [3]?
Answer: 1040 ± 40 nM

Question: And the Kd [4]?
Answer: 540 ± 30 nM

Question: What about the Kd [5] of the same binder?
Answer: 1030 ± 50 nM

Question: What about the Kd [6] of the same binder?
Answer: 680 ± 10 nM

Question: What about the Kd (Jun-Jun bZIP R261A) of the same binder?
Answer: 380 ± 20 nM

Question: What about the Kd [7] of the same binder?
Answer: 950 ± 60 nM

Question: What about the Kd [8] of the same binder?
Answer: 470 ± 60 nM

Question: What about the Kd (Jun-Jun bZIP K273A) of the same binder?
Answer: 6520 ± 750 nM

Question: What about the Kd [9] of the same binder?
Answer: 3720 ± 360 nM

Question: And the Kd [10]?
Answer: 750 ± 100 nM

Question: What about the Kd [11] of the same binder?
Answer: 1390 ± 80 nM

Question: And the Kd [12]?
Answer: 890 ± 30 nM

Question: What about the Kd [13] of the same binder?
Answer: 1120 ± 70 nM

Question: And the Kd [14]?
Answer: 680 ± 30 nM
